Results on 1 substance are retold here after patent US20200399394A1.

Assay [1] has as its target human CD39 (ectonucleoside triphosphate diphosphohydrolase 1) (UniProt P49961). The experiment in a line: MSD equilibrium; Fab.
Assay [2] has the same target. Nature of the assay: ForteBio (BLI); IgG, monovalent. In general terms: BLI is a label-free optical method that tracks binding on a fibre tip over time.

Usually Kd stands for a measure of binding affinity in units of concentration. A high value points to weaker binding. Turning to SRF399-C, the values for the dissociation constant (Kd) in assay [1] and in assay [2] were 0.053 nM and 2.94 nM, respectively.
